Reference: patent publication US20240059757A1 (VIR BIOTECHNOLOGY, published 2024)
Read-outs that look alike come from different tables or passages of the source.

How the values were obtained:
[1] = target: T1, SARS-CoV-2 RBD (residues 331-550 of spike from BetaCoV/Wuhan-Hu-1/2019, accession number MN908947) (SARS-CoV-2 Wuhan-Hu-1, UniProt P0DTC2 331-550); experiment: BLI (Octet): antibody on Protein A pins, SARS-CoV-2 RBD at 6, 1.5 and 0.4 µg/ml
[2] = target: T2, SARS-CoV-2 RBD-mouse Fc (Sino Biological) (SARS-CoV-2, UniProt P0DTC2 331-541)
[3] = target: T1, SARS-CoV-2 RBD (residues 331-550 of …); experiment: ELISA, plate coated with SARS-CoV-2 RBD, OD405nm
[4] = target: T1, SARS-CoV-2 RBD (residues 331-550 of …); experiment: ELISA, plate coated with SARS-CoV-2 RBD; antibodies as rIgG1-LS
[5] = target: T1, SARS-CoV-2 RBD (residues 331-550 of …)
[6] = target: T1, SARS-CoV-2 RBD (residues 331-550 of …); experiment: ELISA, plate coated with SARS-CoV-2 RBD; antibodies as rIgG1-LS; remark: listed apart in the source
[7] = target: T3, SARS-CoV-2 Spike protein (SARS-CoV-2 Wuhan-Hu-1, UniProt P0DTC2 14-1273); experiment: cell-based or functional assay
[8] = target: T4, SARS-CoV RBD (Sino Biological) (SARS-CoV, UniProt P59594 306-527); experiment: ELISA
[9] = target: T1, SARS-CoV-2 RBD (residues 331-550 of …); experiment: BLI (Octet): antibody on Protein A pins, SARS-CoV-2 RBD at 6, 1.5 and 0.4 µg/ml; remark: listed apart in the source
[10] = target: T1, SARS-CoV-2 RBD (residues 331-550 of …); remark: listed apart in the source
[11] = target: T3, SARS-CoV-2 Spike protein; experiment: cell-based or functional assay; remark: listed apart in the source
[12] = target: T4, SARS-CoV RBD (Sino Biological); experiment: BLI
[13] = target: T1, SARS-CoV-2 RBD (residues 331-550 of …); experiment: BLI
[14] = target: T3, SARS-CoV-2 Spike protein; experiment: cell-based or functional assay; remark: listed apart in the source
[15] = target: T5, SARS-CoV Spike protein (SARS-CoV, UniProt P59594 14-1255); experiment: cell-based or functional assay
[16] = target: T3, SARS-CoV-2 Spike protein; experiment: cell-based or functional assay; remark: listed apart in the source
[17] = target: T4, SARS-CoV RBD (Sino Biological); experiment: BLI; remark: listed apart in the source
[18] = target: T1, SARS-CoV-2 RBD (residues 331-550 of …); experiment: BLI; remark: listed apart in the source
[19] = target: T5, SARS-CoV Spike protein; experiment: cell-based or functional assay; remark: listed apart in the source
[20] = target: T4, SARS-CoV RBD (Sino Biological); experiment: ELISA; remark: listed apart in the source
[21] = target: T1, SARS-CoV-2 RBD (residues 331-550 of …); experiment: ELISA
[22] = target: T4, SARS-CoV RBD (Sino Biological)
[23] = target: T5, SARS-CoV Spike protein
[24] = target: T1, SARS-CoV-2 RBD (residues 331-550 of …); remark: listed apart in the source
[25] = target: T2, SARS-CoV-2 RBD-mouse Fc (Sino …); remark: listed apart in the source
[26] = target: T4, SARS-CoV RBD (Sino Biological); remark: listed apart in the source
[27] = target: T1, SARS-CoV-2 RBD (residues 331-550 of …); remark: listed apart in the source
[28] = target: T4, SARS-CoV RBD (Sino Biological); remark: listed apart in the source
[29] = target: T1, SARS-CoV-2 RBD (residues 331-550 of …); remark: listed apart in the source

B1: S2X132 (antibody, V domains shown)
VH: EVQLVESGGGLVQPGGSLRLSCAASGFTVSSNYMSWVRQAPGKGLEWVSVIYSGGNTYYADSVKGRFTISRDNSKNTLYLQMISLRAEDTAVYYCARDRRLPSIIFGLDVWGQGTTVTVSS
VL: QSALTQPASVSGSPGQSITISCTGTSSDVGGNNHVSWYRQHPGKAPKLMIYEVSNRPSGVSNRFSGSKSGNTASLTISGLQAGDEADYYCSSFTTYTTDVVFGGGTKLTVL
B1 gave a Kd [1] of 0.709 nM and an IC50 [2] of 0.0248 µg/mL.

B2: S2F1 (antibody, V domains shown)
VH: EVQLLESGGGLVQPGGSLRLSCAGSGFSVSNHAMSWVRQAPGKGLEWVSAIGGSDSTTYYADSVKGRFAISRDNSKNTLYLQMNSLRADDTAIYYCAKDNYTSTWFPFDYWGQGTQVIVSS
VL: DVVMTQSPLSLPVTLGQPASISCRSSHSLVHGDGNTYLNWFQQRPGQSPRRLIHKVSNRDSGVPDRFSGSGSGTDFTLKISRVEAEDVGVYYCMQGSYWPPWTFGQGTKVEIN
B2: binds [3].

B3: S2D43 (antibody, V domains shown)
VH: QVTLKESGPTLVKPTQTLTLTCTFSGFSLSTSGVGVGWLRQPPGKALEWLALIYWDDDKRYSPSLKNRLTVTKDTSKNQVVLTMTNLDPVDTATYYCAHDNTLGGSSTWQSTFDYWGQGTLVTVSS
VL: QSVLTQPPSVSEAPRQRVTISCSGSNSNIGNNAVHWYQQLPGKAPKLLIYYDDLLPSGVSDRFSGSKSGTSASLAISGLQSEDEADYYCAAWDDRMNGPVFGGGTKLTVL
B3: binds [4].

B4: S2X200 (antibody, V domains shown)
VH: EVHLVESGGGLIQPGGSLRLSCAASGITVSSNYMSWVRQAPGKGLEWVSVIYSGGSTFYADSVKGRFTISRDNSKNTVYLQMNSLRAEDTAVYYCARDLVTYGMDVWGQGTTVTVSS
VL: EIVLTQSPSFLSASVGDRVTITCRASQGISSYLAWYQQKPGKAPKLLIYAASTLQSGVPSRFSGSGSGTEFTLTISSLQPEDFATYYCQQLNGDPPIFGHGTRLEIK
B4 showed an EC50 [5] of 0.00151 µg/mL.

B5: S2D60 (antibody, V domains shown)
VH: EVQLVQSGPEVKKPGTSVKVSCKASGFTFMSSAVQWVRQARGQRLEWIGWIVVGSGNTNYTQKFRERVTITRDMSTSTAYMELSSLRSEDTAVYYCAAPRCSGGSCHDGFDIWGQGTMVTVSS
VL: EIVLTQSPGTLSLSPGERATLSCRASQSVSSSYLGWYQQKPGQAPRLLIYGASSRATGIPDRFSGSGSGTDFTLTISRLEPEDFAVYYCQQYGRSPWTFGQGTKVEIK
In the case of B5, the “EC50 (read off the curve)” value [6] is reported as roughly 0.1 µg/mL, the “neutralization IC50” value [7] is reported as 0.012 µg/mL and the “neutralization IC80” value [7] is reported as 0.04 µg/mL. For the same binder, the “neutralization IC90” value [7] was 0.084 µg/mL, the “neutralization IC95” value [7] was 0.164 µg/mL and the binding result [8] was “no binding”.

B6: S2X190 (antibody, V domains shown)
VH: EVQLVESGGGVVQPGRSLRLSCAASGFPFSTYGMHWVRQAPGKGLEWVAVIWYDGSTKYYADSVKGRFTISRDNSKNTLYLQMNSLRAEDTALYYCARVHSSGPGDEYFQHWGQGTLLTVSS
VL: DIVMTQSPSSLSASVGDRVTITCRASQGISSGLAWYQQKPGKGPKVLIYDASSLESGVPSRFSGSASGTDFTLTISSLQPEDFATYFCQQFYSYPLTFGGGTKVEIK
With B6 the IC50 [2] was 0.02 µg/mL and the Kd [9] was 0.923 nM.

B7: S2X259 (antibody, V domains shown)
VH: QVQLVQSGAEVKKPGSSVKVSCKASGGIFNTYTISWVRQAPGQGLEWMGRIILMSGMANYAQKIQGRVTITADKSTSTAYMELTSLRSDDTAVYYCARGFNGNYYGWGDDDAFDISGQGTLVTVYS
VL: QTVLTQPPSVSGAPGQRVTISCTGSNSNIGAGYDVHWYQQLPGTAPKLLICGNSNRPSGVPDRFSGSKSGTSASLAITGLQAEDEADYYCQSYDSSLSGPNWVFGGGTKLTVL
With B7 the EC50 [10] was 0.00352 µg/mL, the “neutralization IC50” value [11] was 0.184 µg/mL and the Kd [12] was 0.862 nM. The Kd [13] was 0.0874 nM, the “neutralization IC50” value [14] was 0.046 µg/mL and the “neutralization IC50” value [15] was 0.189 µg/mL. For the same binder, the “neutralization IC50” value [16] was 0.231 µg/mL, the Kd [17] was 0.537 nM and the Kd [18] was no more than 0.001 nM. For the same binder, the “neutralization IC50” value [19] was 0.0806 µg/mL, the EC50 [20] was 0.0285 µg/mL and the EC50 [21] was 0.0343 µg/mL. The EC50 [22] was 0.00151 µg/mL, the EC50 [23] was 0.00215 µg/mL and the “EC50 (read off the curve)” value [24] was roughly 7 µg/mL. For the same binder, the IC50 [25] was 0.0221 µg/mL, the IC50 [26] was 0.01 µg/mL and the IC50 [27] was 0.00921 µg/mL.

B8: S2X259 Fab (Fab, V domains shown)
VH: QVQLVQSGAEVKKPGSSVKVSCKASGGIFNTYTISWVRQAPGQGLEWMGRIILMSGMANYAQKIQGRVTITADKSTSTAYMELTSLRSDDTAVYYCARGFNGNYYGWGDDDAFDISGQGTLVTVYS
VL: QTVLTQPPSVSGAPGQRVTISCTGSNSNIGAGYDVHWYQQLPGTAPKLLICGNSNRPSGVPDRFSGSKSGTSASLAITGLQAEDEADYYCQSYDSSLSGPNWVFGGGTKLTVL
B8 was tested, and the Kd [28] was 1.6 nM and the Kd [29] was 0.08 nM.
